The results in this text go back to paper PMC4296922 (ACS Applied Materials & Interfaces, 2014).

Read-outs that look alike come from different tables or passages of the source.

The target in test [1] is T1, aerolysin pore (activated aerolysin in a planar lipid bilayer) (UniProt P09167 24-445). Nature of the test: single-channel nanopore current recording.
The target of test [2] is T1, aerolysin pore (activated aerolysin in …). The test can be described thus: single-channel nanopore current recording. The source holds these as a separate data set.

T1 sequence (P09167 24-445): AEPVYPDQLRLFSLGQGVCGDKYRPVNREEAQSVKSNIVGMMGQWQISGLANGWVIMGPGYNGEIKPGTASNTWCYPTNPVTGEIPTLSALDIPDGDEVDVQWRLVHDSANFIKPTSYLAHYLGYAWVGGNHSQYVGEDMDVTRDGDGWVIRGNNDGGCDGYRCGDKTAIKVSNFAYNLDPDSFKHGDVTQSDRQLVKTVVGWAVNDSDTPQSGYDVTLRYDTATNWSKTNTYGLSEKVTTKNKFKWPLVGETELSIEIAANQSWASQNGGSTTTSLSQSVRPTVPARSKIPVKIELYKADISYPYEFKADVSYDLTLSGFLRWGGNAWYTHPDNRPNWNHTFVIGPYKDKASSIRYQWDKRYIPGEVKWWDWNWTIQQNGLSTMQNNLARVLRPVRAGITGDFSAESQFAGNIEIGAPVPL

On to QFETSAAKLKRKYWWKNL [synthetic peptide Sb2(76-93)s], for which the figures for the kon in test [1] and in test [2] were 8.1e+07 M⁻¹ s⁻¹ and 8.7e+06 M⁻¹ s⁻¹, respectively.
